The test concerns the target mutant MAP7D1 p.R201W (MAP7D1:c.601C>T), His/Myc-tagged (human) (UniProt Q3KQU3). In words: pull-down; 600 µg lysate of HEK293T cells overexpressing His/Myc-MAP7D1 (wt or mutant) incubated with MagneHis Ni particles in 100 mM HEPES, 10 mM imidazole, 500 mM NaCl, 4°C, 4 h; eluted with 500 mM imidazole; western blot with Myc-tag and β-tubulin antibodies; β-tubulin normalised to precipitated Myc-MAP7D1.
UniProt Q3KQU3, sequence (Q3KQU3 whole entry R201W): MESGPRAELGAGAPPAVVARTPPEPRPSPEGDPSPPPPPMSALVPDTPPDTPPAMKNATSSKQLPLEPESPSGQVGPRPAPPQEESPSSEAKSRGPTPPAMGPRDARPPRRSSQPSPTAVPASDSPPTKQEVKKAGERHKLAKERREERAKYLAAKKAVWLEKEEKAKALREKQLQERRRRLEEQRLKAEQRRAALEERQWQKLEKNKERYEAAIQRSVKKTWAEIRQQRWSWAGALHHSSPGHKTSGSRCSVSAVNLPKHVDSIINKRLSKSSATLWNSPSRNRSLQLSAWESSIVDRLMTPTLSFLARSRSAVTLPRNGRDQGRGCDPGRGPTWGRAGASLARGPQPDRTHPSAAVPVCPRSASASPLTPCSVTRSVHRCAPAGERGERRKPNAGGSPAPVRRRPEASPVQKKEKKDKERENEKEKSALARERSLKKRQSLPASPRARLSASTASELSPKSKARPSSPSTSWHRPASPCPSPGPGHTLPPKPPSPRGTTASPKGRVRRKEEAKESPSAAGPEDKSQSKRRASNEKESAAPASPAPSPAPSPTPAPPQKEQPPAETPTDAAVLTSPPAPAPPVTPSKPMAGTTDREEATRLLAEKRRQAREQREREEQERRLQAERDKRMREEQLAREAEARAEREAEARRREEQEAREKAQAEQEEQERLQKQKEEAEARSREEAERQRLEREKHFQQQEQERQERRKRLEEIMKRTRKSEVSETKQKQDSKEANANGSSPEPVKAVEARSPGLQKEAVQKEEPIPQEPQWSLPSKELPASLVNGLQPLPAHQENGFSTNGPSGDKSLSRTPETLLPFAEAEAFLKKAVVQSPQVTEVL

In the case of “β-tubulin (tubulin of microtubules) (from UniProt P07437 1-444) (natural protein)”, the decrease of co-precipitated tubulin relative to wild-type MAP7D1 turned out to be 40%.
